Assay results published in patent US20260234242A1 (HAINAN SIMCERE ZAIMING PHARMACEUTICAL, published 2026).

T1: human CDH6 with EC4 removed, on HEK293T cells (HEK293T-hCDH6-EC4 deletion) (human, UniProt P55285 54-790)
T1 construct: Signal peptide not removed here
T1 sequence: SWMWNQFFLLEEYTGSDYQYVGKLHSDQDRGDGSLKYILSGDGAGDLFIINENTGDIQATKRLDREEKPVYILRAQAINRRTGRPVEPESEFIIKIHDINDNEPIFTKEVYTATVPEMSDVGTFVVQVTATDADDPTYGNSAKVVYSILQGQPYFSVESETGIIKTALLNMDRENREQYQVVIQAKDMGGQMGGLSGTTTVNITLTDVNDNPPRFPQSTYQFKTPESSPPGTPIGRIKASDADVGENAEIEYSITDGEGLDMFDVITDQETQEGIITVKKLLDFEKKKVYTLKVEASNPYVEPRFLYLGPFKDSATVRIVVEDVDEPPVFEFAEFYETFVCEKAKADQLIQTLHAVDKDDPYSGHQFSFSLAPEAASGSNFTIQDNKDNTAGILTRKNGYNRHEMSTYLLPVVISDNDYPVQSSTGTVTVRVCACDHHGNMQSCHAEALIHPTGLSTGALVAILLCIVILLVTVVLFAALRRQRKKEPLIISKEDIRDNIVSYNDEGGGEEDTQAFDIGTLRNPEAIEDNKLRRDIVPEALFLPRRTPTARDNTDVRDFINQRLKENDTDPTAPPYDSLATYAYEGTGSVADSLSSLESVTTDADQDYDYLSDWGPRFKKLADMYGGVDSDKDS

T2: his-tagged human CDH6 extracellular region protein (hCDH6 ECD-his) (human, UniProt P55285 19-615)
T2 construct: also called Human CDH6-his; hCDH6-his; not shown: his tag
T2 sequence: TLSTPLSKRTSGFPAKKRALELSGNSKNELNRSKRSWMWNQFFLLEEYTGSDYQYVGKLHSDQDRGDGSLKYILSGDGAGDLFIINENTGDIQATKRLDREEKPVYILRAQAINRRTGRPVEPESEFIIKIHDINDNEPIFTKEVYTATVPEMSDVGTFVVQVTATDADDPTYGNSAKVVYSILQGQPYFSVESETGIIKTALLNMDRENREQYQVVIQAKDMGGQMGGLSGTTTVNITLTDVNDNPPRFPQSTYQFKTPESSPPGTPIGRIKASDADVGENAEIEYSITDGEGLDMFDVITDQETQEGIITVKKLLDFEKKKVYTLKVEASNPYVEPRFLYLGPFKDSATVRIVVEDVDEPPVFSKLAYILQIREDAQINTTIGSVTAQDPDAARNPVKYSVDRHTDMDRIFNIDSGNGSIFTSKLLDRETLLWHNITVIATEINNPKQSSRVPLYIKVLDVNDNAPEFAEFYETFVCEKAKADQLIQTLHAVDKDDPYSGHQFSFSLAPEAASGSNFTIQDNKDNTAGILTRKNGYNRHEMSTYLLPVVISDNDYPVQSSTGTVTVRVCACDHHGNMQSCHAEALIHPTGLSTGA


Experiments:
[1] = biological target: T1, human CDH6 with EC4 removed, on HEK293T …; experiment: FACS, HEK293T-hCDH6-EC4 deletion cells
Description: To confirm the binding epitope of the CDH6 antibody, the sequences after removal of these 5 regions were constructed into pcDNA3.1 vectors (purchased from Youbio, Cat. No. VT1001), and transfected into HEK293T cells (purchased from Cell Bank of Chinese Academy of Sciences, Cat. No. SCSP-502) to obtain 5 CDH6 truncated cell lines: HEK293T-hCDH6-EC1 deletion, HEK293T-hCDH6-EC2 deletion, HEK293T-hCDH6-EC3 deletion, HEK293T-hCDH6-EC4 deletion, and HEK293T-hCDH6-EC5 deletion.
The binding activity of the CDH6 chimeric antibodies to these 5 cell lines was assayed by FACS.

[2] = biological target: T2, his-tagged human CDH6 extracellular …; experiment: SPR Biacore 8K, antibody captured on Protein A
Description: The affinity of the antibody for the antigen was determined by a multi-cycle kinetic method using a BIAcore 8K instrument. In each cycle, the antibody to be tested was captured using a Protein A chip (purchased from GE, Cat. No. 29-1275-56), and then the antigen human CDH6 protein (hCDH6-his, conventionally synthesized) was injected. The association and dissociation processes of the antibody with the antigen protein were recorded, and finally, the chip was regenerated using Glycine pH 1.5, wherein the mobile phase was HBS-EP+ (10 mM HEPES, 150 mM NaCl, 3 mM EDTA, 0.05% surfactant P20, and 1 mM Ca), the flow rate was 30 μL/min, the association time was 240 s, the dissociation time was 300 s, the regeneration time was 30 s, the detection temperature was 25° C., and the antigen concentration was 31.25-1000 nM. The data were analyzed using Biacore 8K analysis software (version No. 2.0) based on the 1:1 binding model to fit the antibody-antigen binding kinetic parameters, including the association rate constant ka, the dissociation rate constant kd, and the equilibrium dissociation constant KD. The affinity values of the control antibody DS-H01L02 were undetectable. Antibodies not shown in the table had undetectable affinity values.

Row | Max MFI [1] [MFI] | Kd [2] [nM] | koff [2] [s⁻¹] | kon [2] [M⁻¹ s⁻¹] | Binder
1 | 30000 | 8.87 | 0.00585 | 659000 | CHI-CDH6-1 (antibody, human IgG1, kappa, V domains shown, also called CHI-hCDH6-1; CH1-CDH6-1) VH: QVQLQQPGAELVRPGSSVKLSCKASGYTFTNYWMHWVKQRPIEGLEWIGDIDPSHSETHYTQKFKDKATLTVDKSSSTAYMQLSSLTSEDSAVYYCARGDLGRFDYWGQGTTLTVSS VL: DIVLTQSPASLAVSLGQRATISCRASESVSIHGTHLMHWYQQKSGQPPKLLIYAASNLESGVPARFSGSGSETDFTFNIHPVEEEDAATYFCQQSFEDPWTFGGGTKLEIKR
2 | 16800 |  |  |  | CHI-CDH6-3 (antibody, human IgG1, kappa, V domains shown, also called CH1-CDH6-3; chimeric antibody of murine CDH6-3) VH: QVQLQQPGAELVKPGASVKLSCKASGYTFTSYWIHWVKQRPGQGLEWIGEINPSNGVTNCNENFKSKATLTVDKSSSTAYMQLSSLTSEDSAVYYCTIPNLLWWYFDVWGAGTTVTVSS VL: DIQMTQSPASLSVSVGETVTITCRASENIYSNLAWYQQKQGKSPQLLVYEATNLADGVPSRFSGSGSGTQYSLKINSLQSEDFGSYYCQHFWGTLWTFGGGTKLEIKR
3 | 22200 |  |  |  | CHI-CDH6-4 (antibody, human IgG1, kappa, V domains shown, also called CH1-CDH6-4; chimeric antibody of murine CDH6-4) VH: QVQLQQSGPELVKPGASVKISCKASGYAFSNFWMNWVKQRPGKGLEWIGWIYPGDGDTNYNGKFKDKATLTADKSSSTAYIQLSSLTSEDSAVYFCARLYDAWGFFDYWGQGTTLTVSS VL: QIVLTQSPAIMSASPGQKVTITCSASSSVNYMHWYQQKLGSSPKLWIYDKSKLAPGVPARFSGSGSGTSYSLTISSMEAEDAASYFCHQWSSYPPMTFGGGTKLEIKR
4 | 18700 |  |  |  | CHI-CDH6-5 (antibody, human IgG1, kappa, V domains shown, also called CH1-CDH6-5; chimeric antibody of murine CDH6-5) VH: QVQLQQSGAELVRPGTSVKMSCKAAEYTFTNYWIGWVKQRPGHGLEWIGDLYPGGDHANYNEKFEGKATLTADTSSSTAYMQLSSLTSEDSAIYYCARGMLTTGFDSWGQGTTLTVSS VL: DIVMSQSPSSLAVSAGEKVTMSCKSSQSLFNSRTRKNYLAWYQQKPGQSPKLLIYWASTRESGVPDRFTGSGSGTDFTLTISSVQAEDLAVYYCKQSYYLRTFGGGTKLEIKR
5 | 17400 |  |  |  | CHI-CDH6-7 (antibody, human IgG1, kappa, V domains shown, also called CH1-CDH6-7; chimeric antibody of murine CDH6-7) VH: EVKLVESGGGLVKPGGSLKVSCAASGFTFSDHGMAWVRQAPGKGPEWVAFISNLAYSIYYADTVTGRFTISRENAKNTLYLEMSSLRSEDTAMYYCARVYVKWYFDVWGAGTTVTVSS VL: DIQMTQSPASLSASVGETVTITCRASENIDSYLAWYQQKQGKSPQLLVFAATLLADGVPSRFSGSGSGTQYSLKINSLQSEDVARYYCQHYYSTPLTFGAGTKLELKR
6 | 16600 |  |  |  | CHI-CDH6-12 (antibody, human IgG1, kappa, V domains shown, also called CH1-CDH6-12; chimeric antibody of murine CDH6-12) VH: EVNLVESGGGLVQPGDSLTLSCSASGFTFTDYYMSWVRQFPGKALEWLALIRNKANSYTTEYSASVKGRFTISRDNSQSILYLQMNALRAEDSATYYCARDSYYSHDGFAYWGQGTLVTVSA VL: DIVLTQSPASLAVSLGQRATISCRASKSVSTSSYTYMHWYQQKPGQPPKLLIKFASYLESGVPARFSGSGSGTDFTLNIHPVEEEDAATYYCQHSREFPFTFGTGTKLEIKR
7 | 26600 |  |  |  | CHI-CDH6-14 (antibody, human IgG1, kappa, V domains shown, also called CHI-hCDH6-14; CH1-CDH6-14) VH: QIQLQQSGPELVKPGTSVKISCKASGYTFTDNYINWVRQRPGQGLEWIGWIYPGTGNSYYNEKFKGKATLTVDTSSSTAYMQFSSLTSEDSAVYLCASSYGDSFDYWGQGTTLTVSS VL: DIQMTQTTSSLSASLGNRVTISCRASQDIRNYLNWYQQKPDGTFKLLISYTSRLHSGVPSRFSGSGSGTDYSLTVSNLEPEDIATYYCQQYSQLPWTFGGGSRLEIKR
8 | 11800 |  |  |  | DS-H01L02 (antibody, human IgG1, kappa, V domains shown, Positive control, variable regions from WO2018212136A1; also called positive control anti-human CDH6 antibody) VH: EVQLVQSGAEVKKPGASVKVSCKASGYTFTRNFMHWVRQAPGQGLEWMGWIYPGDGETEYAQKFQGRVTITADTSTSTAYMELSSLRSEDTAVYYCARGVYGGFAGGYFDFWGQGTLVTVSS VL: DIQMTQSPSSLSASVGDRVTITCKASQNIYKNLAWYQQKPGKAPKLLIYDANTLQTGVPSRFSGSGSGSDFTLTISSLQPEDFATYFCQQYYSGWAFGQGTKVEIKR
9 | 20600 | 53.5 | 0.00267 | 49900 | NOV0712 (antibody, human IgG1, kappa, V domains shown, Positive control, variable regions from WO2018212136A1; also called positive control anti-human CDH6 antibody) VH: QVQLLESGGGLVQPGGSLRLSCAASGFTFSSHGMHWVRQAPGKGLEWVSVISGSGSNTGYADSVKGRFTISRDNSKNTLYLQMNSLRAEDTAVYYCARQWGSYAFDSWGQGTLVTVSS VL: DIQMTQSPSSLSASVGDRVTITCRASQSISSYLNWYQQKPGKAPKLLIYAVSTLQSGVPSRFSGSGSGTDFTLTISSLQPEDFATYYCQQSGTFPPTTFGQGTKVEIKR
